The results in this text go back to article PMC4259407, “HAX1 regulates E3 ubiquitin ligase activity of cIAPs by promoting their dimerization” (Oncotarget, 2014).

The target of the assay is T1, full-length His-tagged cIAP2 (UniProt Q13489 1-604).
T1 construct: also called His-cIAP2; source: E. coli BL21 (DE3), purified (Ni-NTA)
Put plainly: pull-down; in vitro dimerization assay: purified His-cIAP2 and GST-BUCR with HAX1 or HAX1N (0, 0.5 and 5 μg), preincubated at 4°C for 30 min; Ni-NTA agarose, 4 h at 4°C; 20 mM HEPES, 100 mM NaCl, 5% glycerol, 0.1 mg BSA, 0.1% Triton X-100; blots with anti-His and anti-GST; more complex with HAX1, no effect of HAX1N. To be noted: both partners purified.

B1: GST-tagged cIAP2 fragment (GST-BUCR) (domain or fragment, UniProt Q13489 251-604, looked up)
chain: SMQTHAARFKTFFNWPSSVLVNPEQLASAGFYYVGNSDDVKCFCCDGGLRCWESGDDPWVQHAKWFPRCEYLIRIKGQEFIRQVQASYPHLLEQLLSTSDSPGDENAESSIIHFEPGEDHSEDAIMMNTPVINAAVEMGFSRSLVKQTVQRKILATGENYRLVNDLVLDLLNAEDEIREEERERATEEKESNDLLLIRKNRMALFQHLTCVIPILDSLLTAGIINEQEHDVIKQKTQTSLQARELIDTILVKGNIAATVFRNSLQEAEAVLYEHLFVQQDIKYIPTEDVSDLPVEEQLRRLQEERTCKVCMDKEVSIVFIPCGHLVVCKDCAPSLRKCPICRSTIKGTVRTFLS
notes: cIAP2 residues 251-604 (printed as BUCT in the methods, BUCR in the results), cloned into the GST-tagged vector pGEX-6p-1; also called BUCT (a.a 251–604); source: E. coli BL21 (DE3), purified (glutathione-Sepharose 4B)
Consider B1, for which the binding result is “binds”.
